{"source": "paper PMC4416707", "assay_in_all_cases": "SEC; size exclusion chromatography of the purified LOV constructs under dark state conditions; apparent MW compared with the expected monomer MW of 17 kDa", "key": {"[1]": {"molecular_target": "McLOVn-TF residues 337-490 (isolated LOV domain of the Methylocystis LOV transcription factor) (Methylocystis Rockwall)"}, "[2]": {"molecular_target": "Methylocystis rosea short LOV protein McLOVr (Methylocystis rosea)"}, "[3]": {"molecular_target": "Methylocystis short LOV protein McLOVn (Methylocystis Rockwall)"}}, "data": [{"substance": "McLOVn-TF residues 337-490 (isolated LOV domain of the Methylocystis LOV transcription factor) (domain or fragment)", "values": [{"measurement": "stoichiometry N", "setting": "[1]", "result": 2}]}, {"substance": "Methylocystis rosea short LOV protein McLOVr (natural protein)", "values": [{"measurement": "stoichiometry N", "setting": "[2]", "result": 2}]}, {"substance": "Methylocystis short LOV protein McLOVn (natural protein)", "values": [{"measurement": "stoichiometry N", "setting": "[3]", "result": 2}]}]}
